Measurements taken from patent US20240043506A1 (GARVAN INSTITUTE OF MEDICAL RESEARCH, published 2024).
Numbering of substitutions follows the chain as printed. In names and notes the source's numbering stands.

B1: C12K-D12 (antibody, V domains shown)
VH: EVQLLESGGGLVQPGGSLRLSCAASGFRISDEDMGWVRQAPGKGLEWVSYIDNAGASTYYADSVKGRFTISRDNSKNTLYLQMNSLRAEDTAVYYCAKSLGPNPEFDYWGQGTLVTVSS
VL: DIQMTQSPSSLSASVGDRVTITCRASQSISSYLNWYQQKPGKAPKLLIYYASNLQSGVPSRFSGSGSGTDFTLTISSLQPEDFATYYCQQGLGMPITFGQGTKVEIK
B2: C12K-G10 (antibody, V domains shown)
VH: B1 VH with G101N, P102S, N103L, P104G, E105V
VL: B1 VL with S30Y, S31D, N53A
B3: G1K-C4 (antibody, V domains shown)
VH: EVQLLESGGGLVQPGGSLRLSCAASGFRFDYEDMGWVRQAPGKGLEWVSSIDSHGASTYYADSVKGRFTISRDNSKNTLYLQMNSLRAEDTAVYYCAKYSHSVSYGPFDYWGQGTLVTVSS
VL: B1 VL with S28Y, S31Y, Y32D, Y50S, N53S, G91T, L92N, G93T, M94Y, I96Q

Key:
[1] = biological target: T1, SARS-CoV-2 S protein RBD (residues 319-541 of the S protein), soluble, with C-terminal Avitag and His tag (SARS-CoV-2, UniProt P0DTC2 319-541); assay: biolayer interferometry (BLItz), […]
[2] = biological target: T1, SARS-CoV-2 S protein RBD (residues …); assay: biolayer interferometry (BLItz), […], global fit

Binder | Kd [1] [nM] | Kd [2] [nM]
B1 | 1 | 
B2 | 0.788 | 
B3 |  | 59
